# US20260062456A1
# Several values for one entry are separate records, joined by “and”; a condition that tells them apart may be missing. Identical values can stand only once.
# Molecular target: PD-1 (human) (UniProt Q15116)
# Test: cell-based or functional assay
# Chain of PD-1 (human) (Q15116 25-288): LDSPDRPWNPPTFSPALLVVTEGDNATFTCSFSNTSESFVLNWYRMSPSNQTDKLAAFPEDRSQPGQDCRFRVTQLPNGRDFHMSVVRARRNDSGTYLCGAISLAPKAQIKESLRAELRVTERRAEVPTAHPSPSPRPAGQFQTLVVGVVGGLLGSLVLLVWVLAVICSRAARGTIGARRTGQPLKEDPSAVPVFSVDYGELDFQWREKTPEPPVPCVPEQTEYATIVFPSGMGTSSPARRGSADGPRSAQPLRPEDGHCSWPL
Average Relative Luminescence Units,Fold increase in IL2 reporter signal,Substance
2310 RLU,1.04 fold,"variant PD-L1 IgV-Fc A33D, D43G, N45D, V58A, S75P (Fc fusion)"
2140 RLU,0.96 fold,"variant PD-L1 IgV-Fc A33D, E53V (Fc fusion)"
2000 RLU,0.9 fold,"variant PD-L1 IgV-Fc A33D, N45T (Fc fusion)"
2060 RLU,0.92 fold,"variant PD-L1 IgV-Fc A33D, N78I (Fc fusion)"
2060 RLU,0.92 fold,"variant PD-L1 IgV-Fc A33D, N78S (Fc fusion)"
2040 RLU,0.92 fold,"variant PD-L1 IgV-Fc A33D, S75P (SEQ ID NO 287) (Fc fusion)"
2220 RLU,0.99 fold,"variant PD-L1 IgV-Fc A33D, S75P, D85E (Fc fusion)"
3930 RLU,1.76 fold,"variant PD-L1 IgV-Fc D43G, N45D, L56Q, V58A, G101G-ins (G101GG) (Fc fusion)"
2460 RLU,1.11 fold,"variant PD-L1 IgV-Fc D43G, N45D, V58A (Fc fusion)"
2030 RLU,0.91 fold,"variant PD-L1 IgV-Fc E27G, N45T, K57R (Fc fusion)"
1970 RLU,0.88 fold,"variant PD-L1 IgV-Fc E27G, N45T, M97I (Fc fusion)"
2000 RLU,0.9 fold,"variant PD-L1 IgV-Fc E27G, N45T, V50A (Fc fusion)"
1960 RLU,0.88 fold,"variant PD-L1 IgV-Fc E27G, N45T, V50A, N78I (Fc fusion)"
2220 RLU,0.99 fold,"variant PD-L1 IgV-Fc E40G, D43V, N45T, V50A (Fc fusion)"
4380 RLU,1.97 fold,"variant PD-L1 IgV-Fc I20L, A33D, D43G, N45D, V58A, N78I (Fc fusion)"
3470 RLU,1.56 fold,"variant PD-L1 IgV-Fc I20L, D43G, N45D, N78I (Fc fusion)"
4190 RLU,1.88 fold,"variant PD-L1 IgV-Fc I20L, D43G, N45D, V58A, N78I (Fc fusion)"
2000 RLU,0.9 fold,"variant PD-L1 IgV-Fc I20L, D43G, N45D, V58A, N78I, D90G, G101D (Fc fusion)"
4590 RLU,2.06 fold,"variant PD-L1 IgV-Fc I20L, E27G, D43G, N45D, V58A, N78I (Fc fusion)"
2010 RLU,0.9 fold,"variant PD-L1 IgV-Fc I20L, E27G, D43G, N45T, V50A (Fc fusion)"
1800 RLU,0.81 fold,"variant PD-L1 IgV-Fc I20L, E27G, N45T, V50A (Fc fusion)"
2110 RLU,0.95 fold,"variant PD-L1 IgV-Fc I20L, I36T, N45D (SEQ ID NO 254) (Fc fusion)"
2210 RLU,0.99 fold,"variant PD-L1 IgV-Fc I20L, I36T, N45D (SEQ ID NO 298) (Fc fusion)"
2250 RLU,1.01 fold,"variant PD-L1 IgV-Fc I20L, I36T, N45D, I47T (Fc fusion)"

Average Relative Luminescence Units,Fold increase in IL2 reporter signal,Substance
2160 RLU,0.97 fold,"variant PD-L1 IgV-Fc I20L, I36T, N45T, V50A (Fc fusion)"
3590 RLU,1.61 fold,"variant PD-L1 IgV-Fc I20L, K23E, D43G, N45D, V50A, N78I (Fc fusion)"
3510 RLU,1.57 fold,"variant PD-L1 IgV-Fc I20L, K23E, D43G, N45D, V58A, N78I (Fc fusion)"
4290 RLU,1.93 fold,"variant PD-L1 IgV-Fc I20L, K28E, D43G, N45D, V58A, Q89R, G101G-ins (G101GG) (Fc fusion)"
2110 RLU,0.95 fold,"variant PD-L1 IgV-Fc I20L, M41K, D43G, N45D (Fc fusion)"
2180 RLU,0.98 fold,"variant PD-L1 IgV-Fc I20L, N45T (Fc fusion)"
2070 RLU,0.93 fold,"variant PD-L1 IgV-Fc I20L, N45T, N78I (Fc fusion)"
2360 RLU,1.06 fold,"variant PD-L1 IgV-Fc K23R, D43G, N45D (Fc fusion)"
2690 RLU,1.21 fold,"variant PD-L1 IgV-Fc K23R, N45T, N78I (Fc fusion)"
2350 RLU,1.05 fold,"variant PD-L1 IgV-Fc K28N, M41V, N45T, H51N, K57E (Fc fusion)"
2120 RLU,0.95 fold,"variant PD-L1 IgV-Fc M18I, M41K, D43G, H51R, N78I (Fc fusion)"
2150 RLU,0.97 fold,variant PD-L1 IgV-Fc M41K (Fc fusion)
2190 RLU,0.98 fold,variant PD-L1 IgV-Fc N45T (Fc fusion)
2030 RLU,0.91 fold,"variant PD-L1 IgV-Fc N45T, L74P, S75P (Fc fusion)"
2180 RLU,0.98 fold,"variant PD-L1 IgV-Fc N45T, N78I (Fc fusion)"
1960 RLU,0.88 fold,"variant PD-L1 IgV-Fc N45T, S75P (Fc fusion)"
2080 RLU and 2200 RLU,0.93 fold and 0.99 fold,"variant PD-L1 IgV-Fc N45T, V50A (Fc fusion)"
1900 RLU,0.85 fold,"variant PD-L1 IgV-Fc N45T, V50A, N78I (Fc fusion)"
2240 RLU,1.01 fold,variant PD-L1 IgV-Fc N78L (Fc fusion)
2050 RLU,0.92 fold,"variant PD-L1 IgV-Fc T19I, E27G, N45I, V50A, N78I, M97K (Fc fusion)"
3380 RLU,1.52 fold,"variant PD-L1 IgV-Fc V11A, I20L, E27G, D43G, N45D, H51Y, S99G (Fc fusion)"
2280 RLU,1.02 fold,"variant PD-L1 IgV-Fc V11E, I20L, I36T, N45D, H60R, S75P (Fc fusion)"
2150 RLU,0.97 fold,"variant PD-L1 IgV-Fc Y14S, K28E, N45T (Fc fusion)"

# Molecular target: PD-1-Fc (recombinant PD-1-Fc fusion protein) (human) (UniProt Q15116)
# Sequence (Q15116 25-167 limits assumed): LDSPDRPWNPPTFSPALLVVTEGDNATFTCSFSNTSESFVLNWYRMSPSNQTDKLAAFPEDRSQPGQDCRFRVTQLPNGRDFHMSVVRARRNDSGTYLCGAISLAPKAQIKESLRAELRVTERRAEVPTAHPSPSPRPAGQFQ
# Test: ForteBio Octet, PD-1-Fc on sensor
row,Fortebio binding to PD-1-Fc Response Units (Response Units),Substance
1,0.007,PD-L2 IgV-Fc variant H15Q (Fc fusion)
2,0.025,"PD-L2 IgV-Fc variant H15Q, S67L, R76G, I85F (Fc fusion)"

# Molecular target: T1, CD226 (UniProt Q15762)
# T1 sequence (looked up): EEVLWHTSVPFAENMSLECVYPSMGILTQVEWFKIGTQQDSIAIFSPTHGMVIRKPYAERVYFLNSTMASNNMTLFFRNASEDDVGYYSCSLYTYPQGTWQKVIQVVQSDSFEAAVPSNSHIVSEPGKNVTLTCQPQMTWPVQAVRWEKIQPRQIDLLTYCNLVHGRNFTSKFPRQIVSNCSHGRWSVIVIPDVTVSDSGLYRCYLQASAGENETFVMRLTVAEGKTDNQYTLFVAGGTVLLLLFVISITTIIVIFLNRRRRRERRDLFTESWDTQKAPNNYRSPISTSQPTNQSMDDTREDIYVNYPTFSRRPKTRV
# Test: flow cytometry, cells expressing CD226
row,MFI at 25 nM [MFI],Substance
1,2320,"variant CD155 IgV-Fc V9L, V11M, P18S, N35S, S54G, Q62K, L79P, L104M, T107M, V115M (Fc fusion)"

# Molecular target: human PD-1 and human TIGIT both stably expressed on Jurkat cells (Jurkat/PD-1/TIGIT cells)
# Test: flow cytometry, Jurkat/PD-1/TIGIT cells, 20 nM
row,MFI at 20 nM [MFI],Substance
1,478,Fc Control (homodimer) (from UniProt P0DOX5 218-449)
2,10400,Full length ECD of PD-L1 (R&D Systems) (from UniProt Q9NZQ7 19-238) (Fc fusion)
3,1200,Wild-type CD155-ECD-Fc (from UniProt P15151 21-343) (Fc fusion)
4,41400,non-stack variant PD-L1 IgV-Fc control (D43G/N45D/L56Q/V58A/G101G-ins (G101GG)) (Fc fusion)

# Molecular target: CD112R endogenously expressed on Jurkat/IL-2 reporter cells (Jurkat parental) (UniProt Q6DKI7)
# Sequence (Q6DKI7 whole entry): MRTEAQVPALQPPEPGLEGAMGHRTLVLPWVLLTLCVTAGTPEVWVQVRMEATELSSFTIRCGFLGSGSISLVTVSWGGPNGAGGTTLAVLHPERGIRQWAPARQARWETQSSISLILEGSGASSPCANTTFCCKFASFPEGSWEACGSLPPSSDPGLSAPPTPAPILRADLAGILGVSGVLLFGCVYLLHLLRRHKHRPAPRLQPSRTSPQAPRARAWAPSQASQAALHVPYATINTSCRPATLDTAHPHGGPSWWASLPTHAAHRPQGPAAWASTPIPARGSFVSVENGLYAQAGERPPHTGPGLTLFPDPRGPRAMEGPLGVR
# Test: flow cytometry, Jurkat parental
row,MFI at 33.3nM [MFI],Substance
1,100,non-stack variant PD-L1 IgV-Fc control (D43G/N45D/L56Q/V58A/G101G-ins (G101GG)) (Fc fusion)

# Molecular target: T2, rB7H6.Fc (human) (UniProt Q68D85)
# T2 sequence (looked up): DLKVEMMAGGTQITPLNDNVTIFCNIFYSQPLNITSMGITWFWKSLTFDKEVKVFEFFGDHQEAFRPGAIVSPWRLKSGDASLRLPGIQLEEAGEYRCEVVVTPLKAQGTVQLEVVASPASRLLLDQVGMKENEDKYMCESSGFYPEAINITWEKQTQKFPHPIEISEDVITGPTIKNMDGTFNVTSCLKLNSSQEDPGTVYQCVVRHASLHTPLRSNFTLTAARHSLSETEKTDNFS
# Test: flow cytometry of yeast display strain stained with 16.6 nM rB7H6.Fc
row,MFI [MFI],Substance
1,90,parental NKp30 strain (yeast-displayed wild-type NKp30 IgC-like domain) (from UniProt O14931 19-134) (receptor)
